Assay results published in patent US11464867B2, “Multimeric elastin-like polypeptides” (University of Southern California, priority 2018, dated 2022).

Assays:
[1] = Phase transition temperature by optical density (UV-Vis, 350 nm) versus temperature; format: physicochemical; conditions: 25 μM; Table 5
Experimental: The temperature with the maximum positive slope was defined as the phase transition temperature for each condition. (FIG. 2B) The concentration-temperature phase diagram was determined for both ELPs, and fit to the following equation: Tt=b−m Log10[CELP].
Both ELPs at different concentrations (5 μM to 100 μM) were subject to a precisely controlled temperature increase from 25 to 75° C. at a rate of 1° C./min. The Tt of ELPs is defined as the temperature at which the first derivative of the optical density with respect to the temperature reaches a maximum.

[2] = ATRA encapsulation in 4PA, two phase method, HPLC; format: physicochemical; conditions: theoretical maximum 4
From the text: FIG. 21: SDS PAGE was used to resolve the purified 4PA fusion protein. To formulate ATRA-loaded 4PA, a two phase encapsulation method was adopted. After removing undissolved drug, HPLC was used to quantify 4PA and ATRA concentrations. Encapsulation ratio, defined as CATRA/C4PA was 2.7, theoretical maximum being 4.

In the case of “4PA: 4 Pin1 domains linked by ELP A24, SEQ ID NO: 15”, the “Transition temperature at 25 μM” value [1] is reported as 52.8 °C and the “Encapsulation ratio, CATRA/C4PA” value [2] is reported as 2.7.
